# Experimental data published in patent publication US11260115B1, “Peptides and combination of peptides for use in immunotherapy against CLL and other cancers” (immatics biotechnologies GmbH, priority 2015, dated 2022).
# Molecular target: HLA-A*02:01 (Homo sapiens, UniProt P04439, D140Y/D185E/D98H/E176V/E277Q/G131W/G231S/I119V/I121R/I166T/I218V/L300P/L318F/N151K/N90K/P208A/P217A/Q86G/Q94H/R138H/R169H/T345S)
# Test: MHC binding assay (UV-ligand exchange, β2m ELISA, peptide exchange yield)
# Conditions: binding to HLA-A*02:01
# How it was run: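 Peptide-HLA-A*02:01 complexes formed by UV-mediated exchange of a photocleavable ligand; exchange yield measured by streptavidin-capture ELISA detecting β2m with HRP anti-β2m, TMB read at 450 nm. Refolded monomer standards 15-500 ng/ml; samples diluted 100-fold.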
row,"Peptide Exchange (MHC class I binding score, peptide exchange yield)",Substance
1,“+++” (>50 = +++),278 (YLDDLLPKL; listed as Homo sapiens) [compound 278]
2,“+++” (>50 = +++),279 (YMAPEVVEA; listed as Homo sapiens) [compound 279]
3,“+++” (>50 = +++),280 (YTLDSLYWSV; listed as Homo sapiens) [compound 280]
4,“+++” (>50 = +++),282 (LLRDGIELV; listed as Homo sapiens) [compound 282]
5,“+++” (>50 = +++),283 (ILQPMDIHV; listed as Homo sapiens) [compound 283]
6,“++” (>20% = ++),284 (LLSAAEPVPA; listed as Homo sapiens) [compound 284]
7,“++++” (>75% = ++++),285 (GVATAGCVNEV; listed as Homo sapiens) [compound 285]
8,“+++” (>50 = +++),286 (FLLEDLSQKL; listed as Homo sapiens) [compound 286]
9,“++++” (>75% = ++++),287 (FLWEEKFNSL; listed as Homo sapiens) [compound 287]
10,“+++” (>50 = +++),288 (GLAESTGLLAV; listed as Homo sapiens) [compound 288]
11,“+++” (>50 = +++),289 (ILEEQPMDMLL; listed as Homo sapiens) [compound 289]
12,“+++” (>50 = +++),291 (ILLNEDDLVTI; listed as Homo sapiens) [compound 291]
13,“+++” (>50 = +++),292 (AAALIIHHV; listed as Homo sapiens) [compound 292]
14,“+++” (>50 = +++),293 (ALDIMIPMV; listed as Homo sapiens) [compound 293]
15,“++++” (>75% = ++++),294 (ALLDQLHTLL; listed as Homo sapiens) [compound 294]
16,“+++” (>50 = +++),295 (ALLQKLQQL; listed as Homo sapiens) [compound 295]
17,“++” (>20% = ++),296 (FIAPTGHSL; listed as Homo sapiens) [compound 296]
18,“+++” (>50 = +++),297 (FLVEPQEDTRL; listed as Homo sapiens) [compound 297]
19,“+++” (>50 = +++),298 (IILPVEVEV; listed as Homo sapiens) [compound 298]
20,“+++” (>50 = +++),299 (ILEENIPVL; listed as Homo sapiens) [compound 299]
21,“+++” (>50 = +++),300 (ILLNPAYDVYL; listed as Homo sapiens) [compound 300]
22,“+++” (>50 = +++),301 (AASPIITLV; listed as Homo sapiens) [compound 301]
23,“+++” (>50 = +++),302 (ILQDLTFVHL; listed as Homo sapiens) [compound 302]
24,“+++” (>50 = +++),303 (ILSQPTPSL; listed as Homo sapiens) [compound 303]
25,“+” (>10% = +),304 (LAIVPVNTL; listed as Homo sapiens) [compound 304]
26,“+++” (>50 = +++),305 (LLFPQIEGIKI; listed as Homo sapiens) [compound 305]
27,“++” (>20% = ++),306 (VVAEELENV; listed as Homo sapiens) [compound 306]
